The chains are these.
B1: α-LGR5 clone 1 (antibody, mouse IgG1, kappa, V domains shown)
VH: QVQLQQPGAELVKPGASVKLSCKASGYTFTSYWMQWVKQRPGQGLEWIGEIDPSDYYTNYNQKFKGKATLTVDTSSSTAYMQLSSLTSEDSAVYYCARSLSGYVDYWGQGTTLTVSS
VL: DIQMTQSTSSLSASLGDRVTINCRASQDIRNRLNWYQQKPDGTVKLLISYRSRLQSGVPSRFSGSGSGTEYSLTISNLEQEDIATYFCQQGNTLPPTFGGGTKLEVRR
notes: Murine monoclonal antibody from hybridoma; also called hybridoma clone 1; antibody 1
B2: α-LGR5 clone 4 (antibody, mouse IgG2b, kappa, V domains shown)
VH: B1 VH with S31D, Y56S, K65Q, M81I, E89D, Y103S
VL: B1 VL with S7T, N22S, R30S, E70D, S76T
notes: Murine monoclonal antibody from hybridoma; also called hybridoma clone 4; antibody 4
B3: α-LGR5 clone 3 (antibody, mouse IgG1, kappa, V domains shown)
VH: B1 VH with Y56S, T58S
VL: B1 VL with S7T, N22S, R30S, E70D, Q80E
notes: Murine monoclonal antibody from hybridoma; also called hybridoma clone 3; antibody 3
B4: α-LGR5 variant 4 (antibody, human IgG1, kappa, V domains shown)
VH: QVQLVQSGAEVKKPGASVKVSCKASGYTFTNYWMQWVRQAPGQGLEWIGEIDPSDSYTNYNQKFQGRVTLTVDTSTSTAYMELSSLRSEDTAVYYCARSLSGYVDYWGQGTTVTVSS
VL: EIVMTQSPATLSLSPGERATLSCRASQDISNRLNWYQQKPGQAVRLLISYRSRRHTGIPARFSGSGSGTDYTLTISSLEPEDFAVYYCQQGNSLPPTFGGGTKLEIKR
notes: Humanized antibody; also called α-LGR5v4; clone 2.4
B5: hybridoma clone 12 (antibody, V domains shown)
VH: EVQLQQSGPELVKPGASVKISCKASGYTFTDYYMNWVKQSHGKSLEWIGDINPNNGGTIYNQKFKGKATLTVDKSSSTAYMELRSLTSEDSAVYYCASGYLFDYWGPGTTLTVSS
VL: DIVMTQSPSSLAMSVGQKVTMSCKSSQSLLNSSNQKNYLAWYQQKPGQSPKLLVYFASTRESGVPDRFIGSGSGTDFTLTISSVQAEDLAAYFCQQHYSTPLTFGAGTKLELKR
notes: Murine antibody; also called antibody 12

Substitutions are numbered along the chain they refer to.

One test deals with T1, RAD-displayed Fragment 1A of human LGR5 (human).
T1 construct: also called Frag1A
T1 sequence (O75473 22-37, looked up): GSSPRSGVLLRGCPTH
Briefly: bio-layer interferometry (Octet), captured RAD-displayed fragment, 10 µM Fragment 1 peptide included. On the technique in general: In BLI a coated tip is dipped into the sample, and binding shifts an interference pattern.
As usually defined, the Kd is a measure of binding affinity in units of concentration. B1 displayed a Kd of 0.76 nM.
On the same count and under the same terms, for B2 the value was 1.4 nM.
For the molecule B3, binding was characterised by a dissociation constant (Kd) of 1 nM.

In a further test the target is T1, RAD-displayed Fragment 1A of human LGR5. Put plainly: bio-layer interferometry (Octet), captured RAD-displayed fragment.
In the case of B4, the Kd amounted to 2 nM.

The target of the next test is T2, human LGR6 transgene (human, UniProt Q9HBX8 25-967).
T2 construct: whole, on cells; Overexpressed in HEK293T cells with N-terminal HA tag, V2 receptor tail and eGFP; also tested as lysate; also called hLGR6; LGR6-eGFP
T2 sequence (looked up): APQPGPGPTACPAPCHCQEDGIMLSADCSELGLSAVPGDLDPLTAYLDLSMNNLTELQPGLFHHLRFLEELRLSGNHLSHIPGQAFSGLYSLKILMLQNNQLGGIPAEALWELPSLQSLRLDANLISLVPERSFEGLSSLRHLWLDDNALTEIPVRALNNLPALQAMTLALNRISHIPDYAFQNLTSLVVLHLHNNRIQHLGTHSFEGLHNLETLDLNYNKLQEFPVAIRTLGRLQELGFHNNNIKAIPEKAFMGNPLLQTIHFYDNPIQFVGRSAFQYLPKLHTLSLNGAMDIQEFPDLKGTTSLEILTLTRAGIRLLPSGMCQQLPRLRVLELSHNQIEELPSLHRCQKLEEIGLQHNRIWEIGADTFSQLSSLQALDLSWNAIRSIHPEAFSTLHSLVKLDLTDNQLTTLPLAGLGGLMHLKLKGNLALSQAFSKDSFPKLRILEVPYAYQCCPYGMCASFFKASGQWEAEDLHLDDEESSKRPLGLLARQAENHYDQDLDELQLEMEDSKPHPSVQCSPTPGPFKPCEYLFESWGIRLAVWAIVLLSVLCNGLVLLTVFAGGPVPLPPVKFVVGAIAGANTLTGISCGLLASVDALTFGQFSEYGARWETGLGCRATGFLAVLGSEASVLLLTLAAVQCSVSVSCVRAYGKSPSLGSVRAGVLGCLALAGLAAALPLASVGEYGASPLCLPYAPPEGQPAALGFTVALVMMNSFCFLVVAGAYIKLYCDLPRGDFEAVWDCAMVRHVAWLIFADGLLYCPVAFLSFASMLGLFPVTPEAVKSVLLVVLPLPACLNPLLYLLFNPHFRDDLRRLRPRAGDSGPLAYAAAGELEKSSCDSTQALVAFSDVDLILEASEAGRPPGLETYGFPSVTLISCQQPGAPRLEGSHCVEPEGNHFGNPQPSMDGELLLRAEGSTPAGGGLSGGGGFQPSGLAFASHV
Briefly: western blot of lysates of HEK293T cells expressing the LGR transgenes.
Take B1: the binding result is “no binding”.
B2: the binding result is “no binding”.
The same measure, in the same setting: next, B3: “no binding”; B5: “no binding”.

In another test the target is T3, murine LGR4 transgene (mouse, UniProt A2ARI4 25-951).
T3 construct: whole, on cells; Overexpressed in HEK293T cells with N-terminal HA tag, V2 receptor tail and eGFP; also tested as lysate; also called mLGR4
Described as above.
For the molecule B1, the binding result was “no binding”.
With B2, the binding result is on record as “no binding”.
On the same count and under the same terms, for B3 the value was “no binding”.
The same measure, in the same setting: for B5 the value was “no binding”.

For another test, the target named is T4, human LGR4 transgene (human, UniProt Q9BXB1 25-951).
T4 construct: whole, on cells; Overexpressed in HEK293T cells with N-terminal HA tag, V2 receptor tail and eGFP; also tested as lysate; also called hLGR4; LGR4-eGFP
Described as above.
As to B1, the binding result is reported as “no binding”.
As to B2, the binding result is recorded as “no binding”.
On the same count and under the same terms, for B3 the value was “no binding”.
Still for that read-out and setting: next, B5: “no binding”.

In the next test the target is T5, murine LGR6 transgene (mouse, UniProt Q3UVD5 23-967).
T5 construct: whole, on cells; also called mLGR6
T5 sequence (looked up): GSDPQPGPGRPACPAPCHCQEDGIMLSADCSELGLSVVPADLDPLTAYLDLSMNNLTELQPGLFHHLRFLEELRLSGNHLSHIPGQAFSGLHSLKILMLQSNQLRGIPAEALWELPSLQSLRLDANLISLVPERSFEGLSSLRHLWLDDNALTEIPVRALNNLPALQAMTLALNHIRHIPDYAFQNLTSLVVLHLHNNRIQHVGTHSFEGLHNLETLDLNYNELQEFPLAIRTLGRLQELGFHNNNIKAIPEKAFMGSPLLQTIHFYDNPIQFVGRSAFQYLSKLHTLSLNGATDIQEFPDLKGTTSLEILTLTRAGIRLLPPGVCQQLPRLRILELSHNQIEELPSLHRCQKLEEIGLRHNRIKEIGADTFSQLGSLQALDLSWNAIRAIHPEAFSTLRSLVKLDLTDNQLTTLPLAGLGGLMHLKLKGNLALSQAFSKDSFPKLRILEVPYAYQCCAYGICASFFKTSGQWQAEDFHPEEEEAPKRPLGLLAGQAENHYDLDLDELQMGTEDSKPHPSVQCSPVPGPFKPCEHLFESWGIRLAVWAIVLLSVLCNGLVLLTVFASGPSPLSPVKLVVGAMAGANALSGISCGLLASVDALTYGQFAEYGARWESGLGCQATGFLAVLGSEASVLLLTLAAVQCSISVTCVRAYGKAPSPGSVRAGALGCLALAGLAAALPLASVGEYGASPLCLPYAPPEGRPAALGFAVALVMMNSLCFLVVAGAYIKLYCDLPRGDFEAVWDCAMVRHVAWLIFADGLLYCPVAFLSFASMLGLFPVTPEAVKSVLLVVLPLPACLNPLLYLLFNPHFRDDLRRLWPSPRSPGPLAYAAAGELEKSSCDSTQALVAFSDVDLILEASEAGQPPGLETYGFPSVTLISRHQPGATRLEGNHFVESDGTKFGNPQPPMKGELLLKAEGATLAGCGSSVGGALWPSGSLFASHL
Described as above.
Consider B1, for which the binding result is “no binding”.
Same read-out and setting: next, B2: “no binding”; B3: “no binding”; B5: “no binding”.
